Residue numbers refer to the chain shown, from its start.
T1: human TREM2 (human, UniProt Q9NZC2 19-230)
T1 sequence: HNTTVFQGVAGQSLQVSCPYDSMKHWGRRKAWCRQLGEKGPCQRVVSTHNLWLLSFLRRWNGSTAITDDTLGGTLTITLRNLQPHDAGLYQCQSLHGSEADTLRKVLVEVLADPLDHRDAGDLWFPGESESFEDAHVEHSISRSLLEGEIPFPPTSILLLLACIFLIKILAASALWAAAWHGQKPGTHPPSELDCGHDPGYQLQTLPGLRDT

T2: cynomolgus TREM2 (cynomolgus, UniProt A0A2K5UY34 49-260)
T2 construct: also called cynoTREM2; cTREM2
T2 sequence: T1 sequence with A10E, W60R, L89F, F125V, I157V, L193P, Y201H

T3: mouse TREM2 (mouse, UniProt Q99NH8 19-227)
T3 construct: whole, on cells
T3 sequence (looked up): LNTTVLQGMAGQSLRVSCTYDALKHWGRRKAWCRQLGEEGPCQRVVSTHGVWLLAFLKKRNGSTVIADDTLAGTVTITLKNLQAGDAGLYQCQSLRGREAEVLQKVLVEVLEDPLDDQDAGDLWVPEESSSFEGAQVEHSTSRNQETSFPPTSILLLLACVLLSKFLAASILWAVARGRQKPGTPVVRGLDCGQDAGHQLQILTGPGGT

B1: EOS006166 (antibody, V domains shown)
VH: EVQLVESGGGLVQPGRSLRLSCTASGFTFGDYAMSWFRQAPGKGLEWVGFIGSKAYGGTTEYTASVKGRFTISRDGSKSIAYLQMNSLKTEDTAVYYCARGKRYSYGYWHPAFDVWGQGTMVTVSS
VL: DIQMTQSPSSLSASVGDRVTITCQASQDITNYLNWYQQKPGKAPKLLIYDASNLETGVPSRFSGSGSGTDFTFTISSLQPEDIATYYCQQYDSYLTFGGGTKVEIK
B2: EOS006173 (antibody, V domains shown)
VH: B1 VH with Y104R, S105D
VL: B1 VL with Q90E, S93Q
notes: also called EOS061730
B3: EOS006170 (antibody, V domains shown)
VH: QVQLQESGPGLVKPSGTLSLTCAVSGGSISSSNWWSWVRQPPGKGLEWIGEIYHSGSTNYNPSLKSRVTISVDKSKNQFSLKLSSVTAADTAVYYCARDTKYQAGMDVWGQGTTVTVSS
VL: B1 VL with T30S, E55A, D92V, S93V, Y94F, L95P
B4: EOS006177 (antibody, V domains shown)
VH: B3 VH with S31D, N33A, S55D, G56A, S57D, Q103W, A104G
VL: B1 VL with T30S, E55A, D92V, S93E, Y94A, L95P
B5: EOS006164 (antibody, V domains shown)
VH: B1 VH with G30D, A33T, G57S, G58A, G107T, H110T
VL: B1 VL with Q90E, L95I
B6: EOS006174 (antibody, V domains shown)
VH: B1 VH with D31E, A33T, G57A, Y108G, H110V
VL: B1 VL with Q90E, T96A
B7: EOS006180 (antibody, V domains shown)
VH: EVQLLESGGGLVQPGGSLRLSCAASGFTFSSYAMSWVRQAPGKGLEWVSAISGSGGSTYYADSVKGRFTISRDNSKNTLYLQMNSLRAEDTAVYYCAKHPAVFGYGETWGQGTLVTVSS
VL: EIVLTQSPGTLSLSPGERATLSCRASQSVSSSFLAWYQQKPGQAPRLLIYGASSRATGIPDRFSGSGSGTDFTLTISRLEPEDFAVYYCQQYYGLPITFGGGTKVEIK

Experiments:
human TREM2 [1] = target: T1, human TREM2; experiment: cell-based or functional assay
human TREM2 [2] = target: T1, human TREM2; experiment: cell-based or functional assay; remark: listed apart in the source
human TREM2 [3] = target: T1, human TREM2; experiment: flow cytometry, M2a-like macrophages
Description: (§1) M2a-like macrophages were produced in vitro from monocytes of healthy donors. Briefly, after PBMCs isolation from peripheral blood using Lymphoprep™ gradient, CD14+ cells were purified and seeded in presence of MCSF 50 ng/ml for 6 days. Macrophages were then cultured with IL-13 and IL-4 at a concentration of 20 ng/ml for two additional days and then used for a cell-based binding assay.
(§2) M2a-like macrophages were incubated with anti-TREM2 antibodies (dose-response curve with 11 concentrations from 10 μg/ml to 0.0001 μg/ml) for 30 min at 4° C. After washing, bound antibodies were detected with a secondary anti-human IgG Fc PE-labelled for 30 min at 4° C. Fluorescence intensity was measured by flow cytometry. Equilibrium dissociation constant (kD) was then calculated for each antibody using median MFI normalized over isotype control.

human TREM2 [4] = target: T1, human TREM2; experiment: flow cytometry, THP-1 WT cells, 10 ug/ml
Description: (§3) In order to test specificity of selected antibodies to TREM2, binding was tested by flow cytometry on THP-1 TREM2 KO (clone, produced using CRISPR technology in house) and on THP-1 WT. Cells were incubated with selected anti-TREM2 antibodies (final concentration of 10 μg/ml) for 30 min at 4° C. After washing, bound antibodies were detected with a secondary anti-human IgG Fc PE-labelled for 30 min at 4° C. Fluorescence intensity was measured by flow cytometry.

cynomolgus TREM2 [5] = target: T2, cynomolgus TREM2; experiment: MFI on CHO cells over-expressing cynoTREM2-DAP12
Description: (§4) Cross-reactivity of anti-TREM2 antibodies to cynomolgus TREM2 (cynoTREM2) was assessed using CHO over-expressing cynoTREM2-DAP12 (Table 22). Benchmark antibodies, AB52 and PN-37012, were examined for comparison.

human TREM2 [6] = target: T1, human TREM2; experiment: flow cytometry, M2a-like macrophages, dose-response
Description: as §1, §2

human TREM2 [7] = target: T1, human TREM2; experiment: flow cytometry, THP-1 WT vs THP-1 TREM2 KO cells, 10 ug/ml
Description: as §3

cynomolgus TREM2 [8] = target: T2, cynomolgus TREM2; experiment: MFI on CHO cells over-expressing cynoTREM2-DAP12 vs CHO empty vector
Description: as §4

human TREM2 [9] = target: T1, human TREM2; experiment: flow cytometry, competition with LDL-Alexafluor-488 on CHO cells overexpressing human TREM2/DAP12
Description: Exemplary anti-TREM2 antibodies were tested in order to characterize their ability to enter in competition with TREM2 ligand, LDL, on CHO overexpressing human TREM2/DAP12. Antibodies (dose response curves from 66.65 nM to 0.07 nM) were incubated for 30 min with cells in a soluble fashion, followed by an incubation with LDL coupled with Alexafluor-488 (at 1 μg/mL final) for 30 min. Finally, after 2 washes, cells were acquired on flow cytometer. The median MFI of Alexafluor-488 was used to plot the graphs. Benchmark antibody MOR044746 was used as positive control.

mouse TREM2 [10] = target: T3, mouse TREM2; experiment: MFI on CT26 cells over-expressing mouse TREM2 and DAP12
Description: (§5) Cross-reactivity to mouse TREM2 was assessed using CT26 cells over-expressing mouse TREM2 and DAP12 (Table 23). Eight anti-TREM2 antibodies and both benchmark antibodies were considered cross-reactive to mouse TREM2 (MFI higher than isotype control and fold change of CT26-TREM2 over the CT26 Empty Vector higher than 5). The remaining anti-TREM2 antibodies were considered as being low to not cross-reactive (fold change less than 5). EOS006171 was not tested due to clear non-cross-reactivity preliminary data by octet (data not shown).

mouse TREM2 [11] = target: T3, mouse TREM2; experiment: MFI on CT26 cells over-expressing mouse TREM2 and DAP12 vs CT26 empty vector
Description: as §5

mouse TREM2 [12] = target: T3, mouse TREM2; experiment: MFI on CT26 cells over-expressing mouse TREM2 and DAP12; column 'Considered cross-reactive'
Description: as §5

Binder	Stabilization ratio (Mean of 2 replicates) (human TREM2 [1])	Fold over isotype control at 66 nM (human TREM2 [2])	Fold over isotype (human TREM2 [3])	Fold over isotype control THP1 WT (human TREM2 [4])	Binding to CHO-cTREM2 MFI (cynomolgus TREM2 [5])	Kd (human TREM2 [6])	MFI Fold change (THP-1 WT over THP-1 TREM2 KO) (human TREM2 [7])	MFI Fold change (CHO-cTREM2 over CHO-EV) (cynomolgus TREM2 [8])	IC50 (human TREM2 [9])	pSYK/TotSYK EC50 (nM) (human TREM2 [2])	Binding to CT26-TREM2 MFI (mouse TREM2 [10])	MFI Fold change (CT26-TREM2 over CT26-EV) (mouse TREM2 [11])	binding result (mouse TREM2 [12])
B1	0.49 ratio	1.75 fold	5.9 fold	7.3 fold	25500 MFI	1.21 nM	1.8 fold	602 fold	0.865 nM	–	–	–	–
B2	0.41 ratio	1.34 fold	8.2 fold	3.3 fold	14000 MFI	0.3 nM	3.3 fold	329 fold	0.145 nM	1.08 nM	3940 MFI	11 fold	–
B3	0.57 ratio	1.31 fold	1.1 fold	2.3 fold	1650 MFI	8.2 nM	3.2 fold	42.8 fold	–	–	322 MFI	1 fold	no binding (tested: fold change less than 5)
B4	0.44 ratio	0.95 fold	17.3 fold	3.3 fold	19600 MFI	0.19 nM	6.8 fold	355 fold	0.195 nM	–	8680 MFI	21.4 fold	–
B5	0.55 ratio	1.16 fold	12.9 fold	3.7 fold	14200 MFI	0.32 nM	4.3 fold	277 fold	0.265 nM	–	6540 MFI	21.4 fold	–
B6	0.46 ratio	0.897 fold	14.9 fold	4 fold	15700 MFI	0.09 nM	5.1 fold	323 fold	0.3 nM	–	10100 MFI	34.3 fold	–
B7	–	–	–	–	–	–	–	–	–	–	1890 MFI	1.8 fold	no binding (tested: fold change less than 5)
